Assay results taken from patent US20260001928A1 (CORTERIA PHARMACEUTICALS, priority 2022, published 2026).
*1 amine or outer side, *2 acyl side, *3 side chain or, on linkers, in order; H or OH if unused. Where no end group is shown, it is not given here. Side-chain parts run from the residue outwards. [ ]: non-standard residue; d: D form. The star is where a group is joined. C20 diacid = O=C(O)CCCCCCCCCCCCCCCCCCC(=O)*; γGlu = O=C(O)[C@H](CCC(=O)[*:2])N[*:1]; NMeI = CC[C@H](C)[C@H](NC)C(=O)O; Pentanoyl = CCCCC(=O)*; AEEA = NCCOCCOCC(=O)O; Aib = CC(C)(N)C(=O)O

B1: SEQ ID NO 233 (peptide)
peptide: [NMeI]VLSLD[dV]PIKLK([AEEA-γGlu-C20 diacid])KILLEQEKQKEQREQAETN[Aib]QILAQV-NH2
modifications: N-terminus assumed
SMILES: CC[C@H](C)[C@H](NC)C(=O)N[C@H](C(=O)N[C@@H](CC(C)C)C(=O)N[C@@H](CO)C(=O)N[C@@H](CC(C)C)C(=O)N[C@@H](CC(=O)O)C(=O)N[C@@H](C(=O)N1CCC[C@H]1C(=O)N[C@H](C(=O)N[C@@H](CCCCN)C(=O)N[C@@H](CC(C)C)C(=O)N[C@@H](CCCCNC(=O)COCCOCCNC(=O)CC[C@H](NC(=O)CCCCCCCCCCCCCCCCCCC(=O)O)C(=O)O)C(=O)N[C@@H](CCCCN)C(=O)N[C@H](C(=O)N[C@@H](CC(C)C)C(=O)N[C@@H](CC(C)C)C(=O)N[C@@H](CCC(=O)O)C(=O)N[C@@H](CCC(N)=O)C(=O)N[C@@H](CCC(=O)O)C(=O)N[C@@H](CCCCN)C(=O)N[C@@H](CCC(N)=O)C(=O)N[C@@H](CCCCN)C(=O)N[C@@H](CCC(=O)O)C(=O)N[C@@H](CCC(N)=O)C(=O)N[C@@H](CCCNC(=N)N)C(=O)N[C@@H](CCC(=O)O)C(=O)N[C@@H](CCC(N)=O)C(=O)N[C@@H](C)C(=O)N[C@@H](CCC(=O)O)C(=O)N[C@H](C(=O)N[C@@H](CC(N)=O)C(=O)NC(C)(C)C(=O)N[C@@H](CCC(N)=O)C(=O)N[C@H](C(=O)N[C@@H](CC(C)C)C(=O)N[C@@H](C)C(=O)N[C@@H](CCC(N)=O)C(=O)N[C@H](C(N)=O)C(C)C)[C@@H](C)CC)[C@@H](C)O)[C@@H](C)CC)[C@@H](C)CC)C(C)C)C(C)C
B2: SEQ ID NO 230 (peptide)
peptide: Ac-IVLSLD[dV]PIKLK([AEEA-γGlu-C20 diacid])KILLEQEKQKKQREQAETN[Aib]QILAQV-NH2
SMILES: CC[C@H](C)[C@H](NC(C)=O)C(=O)N[C@H](C(=O)N[C@@H](CC(C)C)C(=O)N[C@@H](CO)C(=O)N[C@@H](CC(C)C)C(=O)N[C@@H](CC(=O)O)C(=O)N[C@@H](C(=O)N1CCC[C@H]1C(=O)N[C@H](C(=O)N[C@@H](CCCCN)C(=O)N[C@@H](CC(C)C)C(=O)N[C@@H](CCCCNC(=O)COCCOCCNC(=O)CC[C@H](NC(=O)CCCCCCCCCCCCCCCCCCC(=O)O)C(=O)O)C(=O)N[C@@H](CCCCN)C(=O)N[C@H](C(=O)N[C@@H](CC(C)C)C(=O)N[C@@H](CC(C)C)C(=O)N[C@@H](CCC(=O)O)C(=O)N[C@@H](CCC(N)=O)C(=O)N[C@@H](CCC(=O)O)C(=O)N[C@@H](CCCCN)C(=O)N[C@@H](CCC(N)=O)C(=O)N[C@@H](CCCCN)C(=O)N[C@@H](CCCCN)C(=O)N[C@@H](CCC(N)=O)C(=O)N[C@@H](CCCNC(=N)N)C(=O)N[C@@H](CCC(=O)O)C(=O)N[C@@H](CCC(N)=O)C(=O)N[C@@H](C)C(=O)N[C@@H](CCC(=O)O)C(=O)N[C@H](C(=O)N[C@@H](CC(N)=O)C(=O)NC(C)(C)C(=O)N[C@@H](CCC(N)=O)C(=O)N[C@H](C(=O)N[C@@H](CC(C)C)C(=O)N[C@@H](C)C(=O)N[C@@H](CCC(N)=O)C(=O)N[C@H](C(N)=O)C(C)C)[C@@H](C)CC)[C@@H](C)O)[C@@H](C)CC)[C@@H](C)CC)C(C)C)C(C)C
B3: SEQ ID NO 229 (peptide)
peptide: [NMeI]VLSLD[dV]PIGLK([γGlu-C20 diacid])KILLEQEKQKKQREQAETN[Aib]QILAQV-NH2
modifications: N-terminus assumed
SMILES: CC[C@H](C)[C@H](NC)C(=O)N[C@H](C(=O)N[C@@H](CC(C)C)C(=O)N[C@@H](CO)C(=O)N[C@@H](CC(C)C)C(=O)N[C@@H](CC(=O)O)C(=O)N[C@@H](C(=O)N1CCC[C@H]1C(=O)N[C@H](C(=O)NCC(=O)N[C@@H](CC(C)C)C(=O)N[C@@H](CCCCNC(=O)CC[C@H](NC(=O)CCCCCCCCCCCCCCCCCCC(=O)O)C(=O)O)C(=O)N[C@@H](CCCCN)C(=O)N[C@H](C(=O)N[C@@H](CC(C)C)C(=O)N[C@@H](CC(C)C)C(=O)N[C@@H](CCC(=O)O)C(=O)N[C@@H](CCC(N)=O)C(=O)N[C@@H](CCC(=O)O)C(=O)N[C@@H](CCCCN)C(=O)N[C@@H](CCC(N)=O)C(=O)N[C@@H](CCCCN)C(=O)N[C@@H](CCCCN)C(=O)N[C@@H](CCC(N)=O)C(=O)N[C@@H](CCCNC(=N)N)C(=O)N[C@@H](CCC(=O)O)C(=O)N[C@@H](CCC(N)=O)C(=O)N[C@@H](C)C(=O)N[C@@H](CCC(=O)O)C(=O)N[C@H](C(=O)N[C@@H](CC(N)=O)C(=O)NC(C)(C)C(=O)N[C@@H](CCC(N)=O)C(=O)N[C@H](C(=O)N[C@@H](CC(C)C)C(=O)N[C@@H](C)C(=O)N[C@@H](CCC(N)=O)C(=O)N[C@H](C(N)=O)C(C)C)[C@@H](C)CC)[C@@H](C)O)[C@@H](C)CC)[C@@H](C)CC)C(C)C)C(C)C
B4: SEQ ID NO 231 (peptide)
peptide: Ac-IVLSLD[dV]PIKLK([AEEA-γGlu-C20 diacid])KILLEQEKQKEQREQAETN[Aib]QILAQV-NH2
SMILES: CC[C@H](C)[C@H](NC(C)=O)C(=O)N[C@H](C(=O)N[C@@H](CC(C)C)C(=O)N[C@@H](CO)C(=O)N[C@@H](CC(C)C)C(=O)N[C@@H](CC(=O)O)C(=O)N[C@@H](C(=O)N1CCC[C@H]1C(=O)N[C@H](C(=O)N[C@@H](CCCCN)C(=O)N[C@@H](CC(C)C)C(=O)N[C@@H](CCCCNC(=O)COCCOCCNC(=O)CC[C@H](NC(=O)CCCCCCCCCCCCCCCCCCC(=O)O)C(=O)O)C(=O)N[C@@H](CCCCN)C(=O)N[C@H](C(=O)N[C@@H](CC(C)C)C(=O)N[C@@H](CC(C)C)C(=O)N[C@@H](CCC(=O)O)C(=O)N[C@@H](CCC(N)=O)C(=O)N[C@@H](CCC(=O)O)C(=O)N[C@@H](CCCCN)C(=O)N[C@@H](CCC(N)=O)C(=O)N[C@@H](CCCCN)C(=O)N[C@@H](CCC(=O)O)C(=O)N[C@@H](CCC(N)=O)C(=O)N[C@@H](CCCNC(=N)N)C(=O)N[C@@H](CCC(=O)O)C(=O)N[C@@H](CCC(N)=O)C(=O)N[C@@H](C)C(=O)N[C@@H](CCC(=O)O)C(=O)N[C@H](C(=O)N[C@@H](CC(N)=O)C(=O)NC(C)(C)C(=O)N[C@@H](CCC(N)=O)C(=O)N[C@H](C(=O)N[C@@H](CC(C)C)C(=O)N[C@@H](C)C(=O)N[C@@H](CCC(N)=O)C(=O)N[C@H](C(N)=O)C(C)C)[C@@H](C)CC)[C@@H](C)O)[C@@H](C)CC)[C@@H](C)CC)C(C)C)C(C)C
B5: SEQ ID NO 228 (peptide)
peptide: Pentanoyl-VLSLD[dV]PIGLK([γGlu-C20 diacid])KILLEQEKQKKQREQAETN[Aib]QILAQV-NH2
SMILES: CCCCC(=O)N[C@H](C(=O)N[C@@H](CC(C)C)C(=O)N[C@@H](CO)C(=O)N[C@@H](CC(C)C)C(=O)N[C@@H](CC(=O)O)C(=O)N[C@@H](C(=O)N1CCC[C@H]1C(=O)N[C@H](C(=O)NCC(=O)N[C@@H](CC(C)C)C(=O)N[C@@H](CCCCNC(=O)CC[C@H](NC(=O)CCCCCCCCCCCCCCCCCCC(=O)O)C(=O)O)C(=O)N[C@@H](CCCCN)C(=O)N[C@H](C(=O)N[C@@H](CC(C)C)C(=O)N[C@@H](CC(C)C)C(=O)N[C@@H](CCC(=O)O)C(=O)N[C@@H](CCC(N)=O)C(=O)N[C@@H](CCC(=O)O)C(=O)N[C@@H](CCCCN)C(=O)N[C@@H](CCC(N)=O)C(=O)N[C@@H](CCCCN)C(=O)N[C@@H](CCCCN)C(=O)N[C@@H](CCC(N)=O)C(=O)N[C@@H](CCCNC(=N)N)C(=O)N[C@@H](CCC(=O)O)C(=O)N[C@@H](CCC(N)=O)C(=O)N[C@@H](C)C(=O)N[C@@H](CCC(=O)O)C(=O)N[C@H](C(=O)N[C@@H](CC(N)=O)C(=O)NC(C)(C)C(=O)N[C@@H](CCC(N)=O)C(=O)N[C@H](C(=O)N[C@@H](CC(C)C)C(=O)N[C@@H](C)C(=O)N[C@@H](CCC(N)=O)C(=O)N[C@H](C(N)=O)C(C)C)[C@@H](C)CC)[C@@H](C)O)[C@@H](C)CC)[C@@H](C)CC)C(C)C)C(C)C
B6: SEQ ID NO 232 (peptide)
peptide: Ac-IVLSLD[dV]PIKLK([AEEA-γGlu-C20 diacid])KILLEQEKQKAQREQAETN[Aib]QILAQV-NH2
SMILES: CC[C@H](C)[C@H](NC(C)=O)C(=O)N[C@H](C(=O)N[C@@H](CC(C)C)C(=O)N[C@@H](CO)C(=O)N[C@@H](CC(C)C)C(=O)N[C@@H](CC(=O)O)C(=O)N[C@@H](C(=O)N1CCC[C@H]1C(=O)N[C@H](C(=O)N[C@@H](CCCCN)C(=O)N[C@@H](CC(C)C)C(=O)N[C@@H](CCCCNC(=O)COCCOCCNC(=O)CC[C@H](NC(=O)CCCCCCCCCCCCCCCCCCC(=O)O)C(=O)O)C(=O)N[C@@H](CCCCN)C(=O)N[C@H](C(=O)N[C@@H](CC(C)C)C(=O)N[C@@H](CC(C)C)C(=O)N[C@@H](CCC(=O)O)C(=O)N[C@@H](CCC(N)=O)C(=O)N[C@@H](CCC(=O)O)C(=O)N[C@@H](CCCCN)C(=O)N[C@@H](CCC(N)=O)C(=O)N[C@@H](CCCCN)C(=O)N[C@@H](C)C(=O)N[C@@H](CCC(N)=O)C(=O)N[C@@H](CCCNC(=N)N)C(=O)N[C@@H](CCC(=O)O)C(=O)N[C@@H](CCC(N)=O)C(=O)N[C@@H](C)C(=O)N[C@@H](CCC(=O)O)C(=O)N[C@H](C(=O)N[C@@H](CC(N)=O)C(=O)NC(C)(C)C(=O)N[C@@H](CCC(N)=O)C(=O)N[C@H](C(=O)N[C@@H](CC(C)C)C(=O)N[C@@H](C)C(=O)N[C@@H](CCC(N)=O)C(=O)N[C@H](C(N)=O)C(C)C)[C@@H](C)CC)[C@@H](C)O)[C@@H](C)CC)[C@@H](C)CC)C(C)C)C(C)C

What follows are binders tested against human corticotropin-releasing factor 2a (CRF2a receptor) (human), Q13324 (assay: cell-based or functional assay).
Chain of human corticotropin-releasing factor 2a (CRF2a receptor) (human), Q13324 (Q13324 20-411): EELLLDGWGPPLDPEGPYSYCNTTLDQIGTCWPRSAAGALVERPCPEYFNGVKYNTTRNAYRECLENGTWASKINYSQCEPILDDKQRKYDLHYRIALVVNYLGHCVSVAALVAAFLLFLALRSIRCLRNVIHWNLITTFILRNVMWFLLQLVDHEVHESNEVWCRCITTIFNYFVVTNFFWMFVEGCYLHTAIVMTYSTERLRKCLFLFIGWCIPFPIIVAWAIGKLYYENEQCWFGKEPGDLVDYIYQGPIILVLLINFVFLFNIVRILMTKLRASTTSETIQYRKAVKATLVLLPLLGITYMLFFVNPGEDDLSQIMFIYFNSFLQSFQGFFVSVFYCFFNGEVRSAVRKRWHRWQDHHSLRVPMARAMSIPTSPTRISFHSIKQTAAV

EC50 [nM] (cAMP) | Binder
0.12 nM | B1
0.16 nM | B2
0.11 nM | B3
0.28 nM | B4
0.19 nM | B5
0.12 nM | B6
